Source: US20210238288A1 (Genentech, published 2021)

Tests used:
[1] = molecular target: T1, αEβ7 integrin (human, UniProt P38570 19-1124; P26010 20-723); test: method not stated
T1 construct: Heterodimer; also called alphaEbeta7; CD103 (αE subunit)

[2] = molecular target: T2, α4β7 integrin (human, UniProt P13612 34-970; P26010 20-723); test: method not stated
T2 construct: Heterodimer; also called alpha4beta7

T1 sequence (P38570 19-1124, chain 1 of 2): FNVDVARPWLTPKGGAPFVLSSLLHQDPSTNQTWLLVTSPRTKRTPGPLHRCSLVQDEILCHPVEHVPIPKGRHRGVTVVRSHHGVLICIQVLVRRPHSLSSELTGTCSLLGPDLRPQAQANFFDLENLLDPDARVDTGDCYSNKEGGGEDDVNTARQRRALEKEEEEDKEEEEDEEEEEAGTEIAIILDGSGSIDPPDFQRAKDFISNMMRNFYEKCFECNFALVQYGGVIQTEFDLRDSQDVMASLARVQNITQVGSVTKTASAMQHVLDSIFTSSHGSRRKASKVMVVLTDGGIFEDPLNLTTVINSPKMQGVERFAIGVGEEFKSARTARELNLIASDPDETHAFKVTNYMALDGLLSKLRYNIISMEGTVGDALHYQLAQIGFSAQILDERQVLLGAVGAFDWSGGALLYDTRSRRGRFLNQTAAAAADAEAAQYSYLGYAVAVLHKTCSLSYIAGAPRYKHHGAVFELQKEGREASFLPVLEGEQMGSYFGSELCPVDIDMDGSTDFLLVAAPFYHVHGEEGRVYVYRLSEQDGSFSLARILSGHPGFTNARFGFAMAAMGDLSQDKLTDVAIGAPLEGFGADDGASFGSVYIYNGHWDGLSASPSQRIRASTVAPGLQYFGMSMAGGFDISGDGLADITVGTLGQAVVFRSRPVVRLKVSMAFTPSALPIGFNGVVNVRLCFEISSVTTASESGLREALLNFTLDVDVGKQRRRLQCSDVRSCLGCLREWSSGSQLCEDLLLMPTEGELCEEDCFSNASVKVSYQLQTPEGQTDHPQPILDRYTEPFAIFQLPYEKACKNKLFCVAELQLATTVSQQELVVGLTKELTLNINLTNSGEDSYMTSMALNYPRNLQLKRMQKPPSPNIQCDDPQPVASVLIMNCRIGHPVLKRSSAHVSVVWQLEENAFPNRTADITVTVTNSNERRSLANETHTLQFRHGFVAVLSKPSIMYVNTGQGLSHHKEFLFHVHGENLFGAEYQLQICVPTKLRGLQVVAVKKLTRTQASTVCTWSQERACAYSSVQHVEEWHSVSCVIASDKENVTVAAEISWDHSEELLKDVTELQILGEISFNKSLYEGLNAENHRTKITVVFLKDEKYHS
T1 sequence (P26010 20-723, chain 2 of 2): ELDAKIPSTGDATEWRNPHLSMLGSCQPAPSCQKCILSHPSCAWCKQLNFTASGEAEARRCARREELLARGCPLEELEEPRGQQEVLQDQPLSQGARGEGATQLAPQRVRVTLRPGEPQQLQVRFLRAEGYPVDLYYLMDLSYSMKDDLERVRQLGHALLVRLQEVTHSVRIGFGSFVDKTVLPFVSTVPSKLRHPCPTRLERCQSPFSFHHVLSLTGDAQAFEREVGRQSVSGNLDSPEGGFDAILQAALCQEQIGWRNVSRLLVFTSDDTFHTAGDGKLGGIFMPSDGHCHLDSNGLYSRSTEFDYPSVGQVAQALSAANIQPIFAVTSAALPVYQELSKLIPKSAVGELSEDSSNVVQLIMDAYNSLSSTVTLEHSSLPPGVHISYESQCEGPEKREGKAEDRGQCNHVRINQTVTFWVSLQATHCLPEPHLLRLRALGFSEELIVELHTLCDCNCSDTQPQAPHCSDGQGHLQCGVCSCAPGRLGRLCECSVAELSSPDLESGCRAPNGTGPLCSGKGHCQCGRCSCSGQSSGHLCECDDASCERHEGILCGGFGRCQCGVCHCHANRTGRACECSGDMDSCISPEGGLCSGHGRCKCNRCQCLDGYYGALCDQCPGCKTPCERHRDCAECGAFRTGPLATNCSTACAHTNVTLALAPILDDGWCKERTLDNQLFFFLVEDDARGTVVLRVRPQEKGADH

Kd [1]: ~1800 pM
Kd [2]: ~116 pM
B1: rhuMAb Beta7 (etrolizumab) (antibody, V domains shown)
VH: EVQLVESGGGLVQPGGSLRLSCAASGFFITNNYWGWVRQAPGKGLEWVGYISYSGSTSYNPSLKSRFTISRDTSKNTFYLQMNSLRAEDTAVYYCARTGSSGYFDFWGQGTLVTVSS
VL: DIQMTQSPSSLSASVGDRVTITCRASESVDDLLHWYQQKPGKAPKLLIKYASQSISGVPSRFSGSGSGTDFTLTISSLQPEDFATYYCQQGNSLPNTFGQGTKVEIKR
